Assays:
human Protein S [1] = molecular target: T1, human Protein S (human, UniProt P07225 42-676); assay: competition ELISA IC50
T1 construct: Called 'full length Protein S' / 'human full-length Protein S'; It was coated on plates (ELISA), Eu-labeled (LANCE) or immobilized on a chip (Biacore); also called PS; full length Protein S
T1 sequence: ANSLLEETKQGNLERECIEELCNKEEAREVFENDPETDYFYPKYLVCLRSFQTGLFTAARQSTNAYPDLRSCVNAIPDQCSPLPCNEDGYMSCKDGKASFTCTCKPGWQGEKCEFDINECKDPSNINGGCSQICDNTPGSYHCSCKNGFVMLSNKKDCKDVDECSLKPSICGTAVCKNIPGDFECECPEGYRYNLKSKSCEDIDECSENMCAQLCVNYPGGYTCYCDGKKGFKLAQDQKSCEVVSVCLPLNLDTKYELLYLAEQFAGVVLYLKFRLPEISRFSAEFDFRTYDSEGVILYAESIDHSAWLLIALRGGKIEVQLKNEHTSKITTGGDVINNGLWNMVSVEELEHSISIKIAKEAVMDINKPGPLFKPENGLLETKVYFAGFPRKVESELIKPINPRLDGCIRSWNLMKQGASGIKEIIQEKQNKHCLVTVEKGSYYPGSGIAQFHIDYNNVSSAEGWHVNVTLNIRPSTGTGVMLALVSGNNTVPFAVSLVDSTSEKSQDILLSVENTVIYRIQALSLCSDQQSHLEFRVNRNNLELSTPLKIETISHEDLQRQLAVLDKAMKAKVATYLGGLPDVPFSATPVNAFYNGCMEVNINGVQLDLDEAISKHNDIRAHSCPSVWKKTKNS
Protocol: The competition (IC50) ELISA was performed using biotinylated tracer peptide JBS0684 to compete for Protein S-binding with candidate peptides. Peptides that compete with the tracer bind the same region of Protein S as the tracer (and each other). Ninety-six well PolySorp plates (Nunc) were coated with 3 μg/mL Protein S in coating buffer (15 mM Na₂CO₃, 35 mM NaHCO₃, pH 9.6) over night. […] Plates were then washed three times with HNaT. JBS0684 was applied at a concentration corresponding to the EC90 value determined in the binding ELISA. A competitor stock solution of peptide (10 mM) was diluted 1/33.3 in HNaT without HSA, and a serial 1/3 dilution was prepared with HNaT with 3% DMSO. The dilution was further diluted with the biotinylated tracer peptide in a ratio of […] (20 μl competitor dilution and 100 μl tracer peptide). The mixture of competitor and tracer peptide was applied to the Protein S-coated microtiter plate and incubated for 1.5 hours. The plates were washed three times with HNaT. Peptide-Protein S binding was detected by applying HRP-conjugated streptavidin to the microtiter plate, incubating the mixture for one hour, washing the plate three times with HNaT, applying TMB (3,3′5,5′-Tetramethylbenzidin), and detecting the subsequent chromogenic conversion of TMB by HRP. IC50 measurements of peptides are provided herein (see, e.g., Table 3). […]

human Protein S [2] = molecular target: T1, human Protein S; assay: cell-based or functional assay
human Protein S [3] = molecular target: T1, human Protein S; assay: LANCE TR-FRET; peptide added to preformed C4BP/Protein S complex; competitor C4BP
Protocol: To investigate the effect of the peptides described herein on PS/C4BP complexes, a LANCE IC50 assay was established using methods similar to those described above. JBS2572 or JBS3216 was added to a preformed C4BP/PS complex. Changes in the complex concentration were followed by recording the TR-FRET signal. For both peptides, a time- and concentration-dependent dissociation of the C4BP/PS complex was observed. […] The time-dependency of the complex reduction was similar for both peptides. After two hours of incubation in the presence of 100 nM JBS2572 or JBS3216, the C4BP/PS complex was reduced to 60% and 50%, respectively. In addition, binding of biotinylated JBS2572 to Protein S was inhibited by C4BP in the LANCE IC50 assay. Pull-down experiments where JBS2697 was coupled to streptavidin sepharose and incubated for one hour at room temperature with (a) Protein S (1.6 pmol) (b) C4BP (8.5 pmol) and (c) Protein S (1.6 pmol)+C4BP (8.5 pmol) supported the results from the modified LANCE IC50 assay. JBS2697 interacted with free Protein S only from experiment (a) with Protein S alone and from experiment (c) with the C4BP-Protein S mixture.

human Protein S [4] = molecular target: T1, human Protein S; assay: LANCE TR-FRET competition; Protein S 2 nM, competitor tracer JBS0684 60 nM; Tecan F500 reader
Protocol: Peptides also were characterized in a competition, homogenous europium-based TR-FRET assay (LANCE IC50 assay) using JBS0684 as a tracer (i.e., competitor for Protein S binding). […] The final volume was 50 μl/well. […] Binding of tracer peptides to soluble europium-labeled Protein S was detected by Streptavidin labeled with an acceptor fluorophor (ULight™). Inhibition of tracer-binding to Protein S by a non-biotinylated peptide results in a decrease of TR-FRET between the Eu-labeled Protein S and ULight™-labeled Streptavidin. IC50 values were obtained from peptide titration curves at constant tracer concentration using non-linear regression of the fluorescence emission signals at 665 nm.

B1: JBS2572 (peptide)
peptide: Ac-TGLVSAGWYDYNFDHYREFT-NH2
notes: also called parent peptide JBS2572
In the case of B1, the “fold increase in affinity compared to JBS2512” value (human Protein S [1]) is reported as 1.6 fold, the “CAT EC50” value (human Protein S [2]) is reported as 0.014 µM and the IC50 (human Protein S [3]) is reported as 0.002 µM. It also gave an IC50 (human Protein S [4]) of about 0.01 µM.

— patent US20150246947A1 (BAXALTA, published 2015)
